In article PMC12436618:

Target: KIF1A-201(1-482)-His (mouse)
Assay: SEC; Superdex 200 Increase 10/300 GL; 250 µg of each protein at about 1.2 µg/µl; 20 mM PIPES-KOH pH 7.0, 150 mM KCl, 1 mM MgCl2, 0.1% Tween 20; size from a calibration curve of globular standards; monomer to dimer

KIF1A-201(1-482)-His (domain or fragment)
stoichiometry N: 2
